Results: patent US20140235490A1

Tested on: SNAPtide (FITC/DABCYL), List Biological Laboratories product #521

In the case of “BoNT/A complex (botulinum neurotoxin type A with neurotoxin associated proteins, Hall A strain)”, the “Km of SNAPtide conversion, non-bead based assay (free toxin)” value is reported as “non-bead based assay: typical Km=0.7 µM” and the “Km of the immobilized enzyme against the free enzyme” value is reported as 3.2-fold lower than for the free enzyme.
